B1: Transport and Golgi Organization 2 (TANGO2) protein (natural protein, human (endogenous in HEK293T), UniProt Q6ICL3 1-276, looked up)
chain: MCIIFFKFDPRPVSKNAYRLILAANRDEFYSRPSKLADFWGNNNEILSGLDMEEGKEGGTWLGISTRGKLAALTNYLQPQLDWQARGRGELVTHFLTTDVDSLSYLKKVSMEGHLYNGFNLIAADLSTAKGDVICYYGNRGEPDPIVLTPGTYGLSNALLETPWRKLCFGKQLFLEAVERSQALPKDVLIASLLDVLNNEEAQLPDPAIEDQGGEYVQPMLSKYAAVCVRCPGYGTRTNTIILVDADGHVTFTERSMMDKDLSHWETRTYEFTLQS
notes: TANGO2, endogenous in human HEK293T cells, detected with an anti-TANGO2 antibody (Invitrogen PA5-51818); also called Transport and Golgi organization 2 homolog; T2; source: endogenous, HEK293T cells
B2: glyceraldehyde phosphate dehydrogenase (GAPDH) (natural protein)
chain: not shown
notes: Glyceraldehyde 3-phosphate dehydrogenase, endogenous in the human HEK293T cell line, detected with an anti-GAPDH antibody; In the experiments on isolated mouse mitochondria the GAPDH came with HEK293T cytosol, but mouse GAPDH that stayed on the mitochondria cannot be ruled out; also called Glyceraldehyde 3-phosphate dehydrogenase; source: endogenous, HEK293T cells; endogenous, solubilised HEK293T …
B3: H53A point mutant variant of HA-hGAPDH (natural protein)
chain: not shown
notes: human GAPDH with H53A, expressed from the H53A variant of pRK5-TC-hGAPDH-HA; also called H53A HA-GAPDH; HA-H53A; source: HEK293T, transfected (H53A variant of pRK5-TC-hGAPDH-HA), in cells; in solubilised mitochondria

Tests used:
Conditions in all cases: partners not purified
[1] = target: T1, Feline Leukemia Virus subgroup C Receptor 1b (FLVCR1b) (human (endogenous in HEK293T), UniProt Q9Y5Y0-2 1-279); assay: proximity ligation; Duolink PLA on fixed, permeabilised heme-depleted HEK293T cells, pairs of primary antibodies to the endogenous proteins; 0, 15, 30, 45, 60 and 120 min after δ-ALA (1 mM) and ferric citrate (100 μM); also in cells with control siRNA or knock-down of TANGO2 or GAPDH; background = one primary antibody alone, set to 1.0
T1 construct: FLVCR1 isoform b, the mitochondrially targeted version of FLVCR1a that is missing the first six transmembrane helices; endogenous in human HEK293T cells, detected or precipitated with an anti-FLVCR antibody (Novus NB100-1481); The antibody is named as against human FLVCR / FLVCR1; also called Feline leukemia virus subgroup C receptor 1 isoform b; source: endogenous, HEK293T cells; endogenous, …
T1 sequence (looked up): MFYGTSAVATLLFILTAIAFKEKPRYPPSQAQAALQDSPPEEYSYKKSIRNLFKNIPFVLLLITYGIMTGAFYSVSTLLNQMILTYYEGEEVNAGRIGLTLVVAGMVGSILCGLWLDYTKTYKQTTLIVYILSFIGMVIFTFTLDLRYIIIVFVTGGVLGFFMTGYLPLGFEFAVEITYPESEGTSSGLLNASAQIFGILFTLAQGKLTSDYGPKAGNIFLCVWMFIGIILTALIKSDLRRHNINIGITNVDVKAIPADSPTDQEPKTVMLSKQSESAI

[2] = target: B2; assay: as above
[3] = target: T2, FLVCR1b in isolated mouse mitochondria (mouse (endogenous in brain and liver …, UniProt B2RXV4-2 1-279)); assay: proximity ligation; Duolink PLA on mitochondria from mouse brain and liver, before or after incubation with δ-ALA and mitochondria-free HEK293T cytosol (control or TANGO2 knock-down cells) at 37 °C, reisolated and placed on poly-D-lysine coverslips
T2 construct: Detected with the antibody named as against FLVCR1 (Novus NB100-1481); also called mitochondrial FLVCR1b; source: endogenous, mitochondria isolated from mouse brain and liver
T2 sequence (looked up): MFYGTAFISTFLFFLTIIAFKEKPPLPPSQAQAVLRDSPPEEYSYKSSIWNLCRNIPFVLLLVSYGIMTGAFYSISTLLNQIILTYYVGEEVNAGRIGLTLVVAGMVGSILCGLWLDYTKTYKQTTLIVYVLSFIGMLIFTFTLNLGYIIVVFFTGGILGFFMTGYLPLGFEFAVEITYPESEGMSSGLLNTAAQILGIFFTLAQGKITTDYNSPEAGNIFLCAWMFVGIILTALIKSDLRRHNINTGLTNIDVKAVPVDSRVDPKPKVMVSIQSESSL

[4] = target: T1, Feline Leukemia Virus subgroup C …; assay: proximity ligation; Duolink PLA on HEK293T cells transfected with HA-tagged GAPDH wild type or H53A, antibodies to HA and FLVCR1; resting and at times after δ-ALA/Fe; background = one primary antibody alone

Binder	PLA signal over background, resting cells [1] [fold over background]	PLA signal over background [2] [fold over background]	fold increase of PLA signal after 30 min with δ-ALA and cytosol [3] [fold]	fold increase of PLA signal 30 min after δ-ALA/Fe [1] [fold]	PLA signal over background, resting cells [4] [fold over background]
B1	5	2.5	–	–	–
B2	2.5	–	4	18	–
B3	–	–	–	–	~2
